Experimental data from patent US20100322931A1 (AbbVie / Abbott, published 2010).

Biological target: T1, VEGF (R&D systems, Minneapolis, Minn.) (UniProt P15692-4 27-191, limits assumed)
T1 construct: Soluble analyte in the BIAcore assay; also called vascular endothelial growth factor; VEGFA
Experiment: SPR (BIAcore 2000/3000), antibody captured on anti-human Fc, VEGF as analyte, 1:1 Langmuir fit; variant corresponding to SEQ ID NO:82, the tightest of the variants
Experimental: RL was kept low to minimize avidity due to the dimeric nature of VEGF. No capture of the antibody was made on the reference surface to serve as a negative control. Subsequently, VEGF was injected to all flow cells at a flow rate of 50 μL/min for two minutes to monitor association followed by a 25-minute flow of HBS-P running buffer (10 mM HEPES, 150 mM sodium chloride, 0.005% P-20, pH 7.4) to monitor the dissociation phase. At each cycle, VEGF, in 6 different concentrations of VEGF ranging between 0 nM and 512 nM and at four-fold increments, was injected over the surface. […] Binding data were fit to the 1:1 Langmuir model to extract binding constants from the BIAevaluate software. Double referencing was applied in each analysis to eliminate background responses from the reference surface and buffer only control. All the binding kinetics data were analyzed at least three separate determinations.

T1 sequence (P15692 other isoform, or with tags, fused parts or gaps limits assumed): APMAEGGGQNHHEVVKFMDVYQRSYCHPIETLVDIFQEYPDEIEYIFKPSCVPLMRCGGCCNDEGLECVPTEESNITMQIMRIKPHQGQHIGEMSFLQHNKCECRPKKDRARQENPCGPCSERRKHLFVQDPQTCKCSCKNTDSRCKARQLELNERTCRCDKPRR

B1: bevacizumab variant corresponding to SEQ ID NO:82 (antibody, V domains shown)
VH: EVQLVESGGGLVQPGGSLRLSCAASGYTFTFYGMNWVRQAPGKGLEWVGWINTYTGEPTYAADFKRRFTFSLDTSKSTAYLQMNSLRAEDTAVYYCAKYPDYDGGSHWYFDVWGQGTLVTVSS
VL: DIQMTQSPSSLSASVGDRVTITCSASQDISNYLNWYQQKPGKAPKVLIYFTSSLHSGVPSRFSGSGSGTDFTLTISSLQPEDFATYYCQQYSTVPWTFGQGTKVEIKR
notes: Variant VH cloned with the unmodified VL into a human IgG1-containing plasmid and expressed in 293T/17 cells
**Q.** How did the Kd turn out when B1 was run?
**A.** Its Kd is 0.08 nM.
